Reference: publication PMC4390835
Read-outs that look alike come from different tables or passages of the source.

Legend:
[1] = target: Lsp1, C-terminally tagged with mVenus or mCerulean (S. cerevisiae) (UniProt Q12230); experiment: FRET or BRET
[2] = target: Lsp1, C-terminally tagged with mVenus or mCerulean (S. cerevisiae) (UniProt Q12230); experiment: FRET or BRET; remark: listed apart in the source
[3] = target: Lsp1, C-terminally tagged with mVenus or mCerulean (S. cerevisiae) (UniProt Q12230); experiment: FRET or BRET; remark: listed apart in the source
[4] = target: Pil1, C-terminally tagged with mVenus or mCerulean (S. cerevisiae) (UniProt P53252); experiment: FRET or BRET
[5] = target: Pil1, C-terminally tagged with mVenus or mCerulean (S. cerevisiae) (UniProt P53252); experiment: FRET or BRET; remark: listed apart in the source
[6] = target: Pil1, C-terminally tagged with mVenus or mCerulean (S. cerevisiae) (UniProt P53252); experiment: FRET or BRET; remark: listed apart in the source
[7] = target: Pil1, C-terminally tagged with mVenus or mCerulean (S. cerevisiae) (UniProt P53252); experiment: number and brightness
[8] = target: Pil1, C-terminally tagged with mVenus or mCerulean (S. cerevisiae) (UniProt P53252); experiment: FRET or BRET; remark: listed apart in the source
[9] = target: Pil1, C-terminally tagged with mVenus or mCerulean (S. cerevisiae) (UniProt P53252); experiment: FRET or BRET; remark: listed apart in the source
[10] = target: Pil1, C-terminally tagged with mVenus or mCerulean (S. cerevisiae) (UniProt P53252); experiment: FRET or BRET; remark: listed apart in the source
[11] = target: Pil1, C-terminally tagged with mVenus or mCerulean (S. cerevisiae) (UniProt P53252); experiment: FRET or BRET; remark: listed apart in the source

Substance	FRET efficiency [1]	FRET efficiency [2]	FRET efficiency [3]	FRET efficiency [4]	FRET efficiency [5]	FRET efficiency [6]	percent of Pil1-mVenus that corresponds to oligomers [7]	FRET efficiency [8]	FRET efficiency [9]	FRET efficiency [10]	FRET efficiency [11]
Lsp1, C-terminally tagged with mVenus or mCerulean (from UniProt Q12230 1-341) (natural protein)	20%	20%	30%								
Pil1, C-terminally tagged with mVenus or mCerulean (from UniProt P53252 1-339) (natural protein)				10%	15%	20%	8%	18%	5%	10%	28%
